The source of these data is the supplement of paper PMC10567573.

± gives the standard deviation.

A short description of the data set: protein stability index of a GFP-peptide fusion (GPS, HEK-293T) (PSI 1-6); higher = more stable. The conditions noted are these: c terminus: a fixed tail appended.
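Further: 24-mer peptide tiles fused after GFP, lentivirally expressed, FACS-sorted into six equal bins by GFP/DsRed ratio, decoded by Illumina sequencing, PSI is the read-weighted mean bin number.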

Take VEVLVDLFLKEGACDELFSYLIEK [PRAME]: the protein stability index is 2.55 ± 0.66 (treatment: DMSO) and 3.03 ± 0.58 (treatment: MLN4924 1 uM, 8 h).
Taken in the same sequence, the figures for VFAHCKEAPSTASSTPDSTEGGND [RTN2] were 5.42 ± 0.33 and 5.37 ± 0.37.
Taken in the same sequence, the figures for VFCREGPTHQAHTVGFLDEAIQPY [TRIM15] were 2.85 ± 0.31 and 2.83 ± 0.24.
Turning to VFLVSCALPDSVLRRFVVRTMCAV [AUP1], the protein stability index stood at 2.71 ± 0.49 (treatment: DMSO) and 2.67 ± 0.068 (treatment: MLN4924 1 uM, 8 h).
For the sequence VGGQDTGATWRTSGLLEELNAEAG [C18orf25], the protein stability index (treatment: DMSO) worked out at 4.57 ± 0.2 and the protein stability index (treatment: MLN4924 1 uM, 8 h) turned out to be 4.59 ± 0.34.
Taken in the same sequence, the figures for VGKSLTILGRTFFIYDCDPFTRRY [EFHC1] were 2.47 ± 0.54 and 2.7 ± 0.54.
Taken in the same sequence, the figures for VGLAAVNSMPVDNRNHNEGMVTRC [CHGB] were 4.27 ± 0.23 and 4.3 ± 0.37.
The matching figures for VGYTRGLHVWQITWAMRQRGTHAV [SPSB1]: 2.37 ± 0.52 and 2.55 ± 0.52.
With VIKGVLFRIFIIWAISSWFRRGPA [CLPTM1], the protein stability index reads like this: (treatment: DMSO) 2.75 ± 0.58; (treatment: MLN4924 1 uM, 8 h) 2.87 ± 0.68.
The matching figures for VITALKCHKYDRNIQVTGSAALFY [ZER1]: 2.84 ± 0.18 and 2.85 ± 0.47.
Consider VKFCLLGALLAPIRVLLAFIVLFL [LPCAT4], for which the protein stability index reads like this: (treatment: DMSO) 2.15 ± 0.29; (treatment: MLN4924 1 uM, 8 h) 1.86 ± 0.2.
The matching figures for VKLLVDLELSYGFENGQKAAVVHH [TOR1AIP2]: 2.22 ± 0.26 and 2.3 ± 0.12.
The matching figures for VKTKKNAPSATIHQGEEEGPLDIW [FBXO34]: 4.21 ± 0.2 and 4.4 ± 0.25.
In the case of VLEIEQSMNRVKNISDADVHNAMD [FEM1B], the protein stability index turned out to be 4.13 ± 0.14 (treatment: DMSO) and 4.32 ± 0.23 (treatment: MLN4924 1 uM, 8 h).
The sequence VLKLLLLLLLFGVAGGLVACRVTE [LRRC59] had a protein stability index (treatment: DMSO) of 2.77 ± 0.73 and a protein stability index (treatment: MLN4924 1 uM, 8 h) of 2.68 ± 0.81.
Taken in the same sequence, the figures for VLMDTQGAFDSQSTVKDCATIFAL [ATL3] were 2.48 ± 0.35 and 2.55 ± 0.21.
Consider VLTDSNHVPLQRLSLLVHNVSVMH [FBXO33], for which the protein stability index runs as follows: (treatment: DMSO) 1.96 ± 0.3; (treatment: MLN4924 1 uM, 8 h) 2.22 ± 0.28.
The matching figures for VMAWVKYSIQERRPQLPQVLQHVR [KLHL20]: 2.41 ± 0.37 and 2.04 ± 0.34.
The matching figures for VNGSWYIQDLCEMLGKYGSSLEFT [CASP6]: 2.95 ± 0.65 and 2.67 ± 0.55.
Taken in the same sequence, the figures for VNKLKWNLAAMTPHDFIEHFLSKM [CCND1] were 2.25 ± 0.35 and 2.51 ± 0.25.
As to VPQIFKYGETCFPKGRFERKRNPS [ZNF24], the protein stability index stood at 3.8 ± 0.76 (treatment: DMSO) and 3.93 ± 1.1 (treatment: MLN4924 1 uM, 8 h).
Taken in the same sequence, the figures for VPSEEPQESDQTEEHESGIEQFSE [IQUB] were 5.69 ± 0.13 and 5.57 ± 0.38.
Turning to VPTCSMCKVFGIHKACEVAPLQSV [TRIM63], the protein stability index runs as follows: (treatment: DMSO) 2.64 ± 0.32; (treatment: MLN4924 1 uM, 8 h) 2.73 ± 0.14.
Taken in the same sequence, the figures for VQHQRVHTGEKPYKCLECGKAFSQ [ZNF24] were 3.29 ± 0.55 and 3.66 ± 0.46.
Taken in the same sequence, the figures for VQVPEAWEELLTMKVEAKSHLQWQ [ZSCAN9] were 2.46 ± 0.65 and 2.54 ± 0.26.
Taken in the same sequence, the figures for VSARSREGRGGRPGSTRPHRSACS [HAGHL] were 4.64 ± 0.2 and 4.69 ± 0.44.
VSERSFDNVRSLKVESGAWIGYEH [CRYBA1]: the protein stability index reads like this: (treatment: DMSO) 2.91 ± 0.47; (treatment: MLN4924 1 uM, 8 h) 3.02 ± 0.33.
Taken in the same sequence, the figures for VSHVGWDPQNGFDVNNLDPDLRSL [WAS] were 3.9 ± 0.24 and 3.98 ± 0.3.
The matching figures for VSIKEAAGSSNLPAPERTMAGLSK [VENTX]: 4.28 ± 0.3 and 4.33 ± 0.19.
Taken in the same sequence, the figures for VSLKQEGDDQPSETDHLSMEEEDP [TPRG1] were 5.61 ± 0.22 and 5.63 ± 0.2.
In the case of VSSSQDGKVIVWDSFTTNKEHAVT [GNB5], the protein stability index was 3.51 ± 0.23 (treatment: DMSO) and 3.67 ± 0.38 (treatment: MLN4924 1 uM, 8 h).
For VTPEAKNLINQMLTINPAKRITAH [CAMK2B], the protein stability index is, setting by setting: (treatment: DMSO) 2.8 ± 0.14; (treatment: MLN4924 1 uM, 8 h) 2.95 ± 0.3.
Taken in the same sequence, the figures for VTYSLLKRLKERSLDTLLEAVESR [SMAD6] were 2.26 ± 0.17 and 2.33 ± 0.29.
The matching figures for VVHRSDEQQHYFNTPFQLSIAPPE [PPTC7]: 3.96 ± 0.28 and 4 ± 0.24.
On to VVPDVRSVVTTARMQVLKRQVQSL [SMARCE1], for which the protein stability index is, setting by setting: (treatment: DMSO) 2.5 ± 0.14; (treatment: MLN4924 1 uM, 8 h) 2.85 ± 0.21.
Regarding VWYVKKFGRYLEHLEVKFMNPYNA [FBXO39], the protein stability index reads like this: (treatment: DMSO) 2.66 ± 0.53; (treatment: MLN4924 1 uM, 8 h) 2.02 ± 0.45.
